Earlier results on one substance are cited in article PMC4495883.

By Kd is commonly meant a measure of binding affinity in units of concentration.

This series has as its target insulin-degrading enzyme (112 kDa protein) (Rattus norvegicus) (UniProt P35559). The series is described as follows: cross-linking.
Sequence of UniProt P35559 (P35559 whole entry): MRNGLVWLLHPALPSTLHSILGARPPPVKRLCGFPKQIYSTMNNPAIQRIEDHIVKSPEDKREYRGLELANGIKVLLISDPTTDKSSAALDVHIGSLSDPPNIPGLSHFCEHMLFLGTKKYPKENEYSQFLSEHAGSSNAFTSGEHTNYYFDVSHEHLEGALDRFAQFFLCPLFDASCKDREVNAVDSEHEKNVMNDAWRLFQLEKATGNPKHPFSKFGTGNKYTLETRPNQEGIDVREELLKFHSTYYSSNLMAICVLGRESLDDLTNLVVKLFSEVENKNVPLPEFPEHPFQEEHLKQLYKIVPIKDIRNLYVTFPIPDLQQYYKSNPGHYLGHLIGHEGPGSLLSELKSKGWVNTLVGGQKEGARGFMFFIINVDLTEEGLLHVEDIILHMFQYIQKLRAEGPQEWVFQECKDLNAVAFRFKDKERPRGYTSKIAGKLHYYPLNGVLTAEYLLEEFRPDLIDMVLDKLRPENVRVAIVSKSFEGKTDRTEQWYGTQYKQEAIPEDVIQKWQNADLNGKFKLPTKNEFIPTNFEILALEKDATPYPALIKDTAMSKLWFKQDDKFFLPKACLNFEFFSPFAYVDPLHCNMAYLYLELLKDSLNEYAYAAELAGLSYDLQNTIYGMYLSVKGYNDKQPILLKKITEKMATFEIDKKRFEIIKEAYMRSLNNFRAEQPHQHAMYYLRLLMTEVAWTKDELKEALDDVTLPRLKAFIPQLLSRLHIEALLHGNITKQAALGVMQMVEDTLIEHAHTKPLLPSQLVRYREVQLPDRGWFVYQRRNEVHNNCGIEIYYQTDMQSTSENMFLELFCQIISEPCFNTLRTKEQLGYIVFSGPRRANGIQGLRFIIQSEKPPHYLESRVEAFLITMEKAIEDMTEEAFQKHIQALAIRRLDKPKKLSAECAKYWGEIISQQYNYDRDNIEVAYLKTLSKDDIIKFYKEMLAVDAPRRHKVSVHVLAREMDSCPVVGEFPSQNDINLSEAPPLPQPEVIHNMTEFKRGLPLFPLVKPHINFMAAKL

As to ANP (from UniProt P01161), the dissociation constant Kd was 60 nM.
